As usually defined, the Km is the substrate concentration at which the rate is half of its maximum. As a reminder, the kcat is the number of substrate molecules converted per active site and unit of time at saturation.

Common to all, as to test: purified protein
Substrate in data set [1]: COc1cc(C(O)C(CO)Oc2ccccc2OC)ccc1O
The conditions noted are these: 0.1 mM NAD+, 0.1 μM enzyme, 25 mM Tris-HCl pH 8, 25 mM NaCl, oxidation.

Substrate in data set [2]: COc1cc(C(=O)C(C)=O)ccc1O
Format: biochemical, Novosphingobium aromaticivorans. Conditions: 0.1 mM NADH, 25 mM Tris-HCl pH 8, 25 mM NaCl, reduction of Cα ketone.

Substrate in data set [3]: COc1cc(C(O)C(C)O)ccc1O
Format: biochemical, Novosphingobium aromaticivorans. The conditions noted are these: 0.1 mM NAD+, 0.1 μM enzyme, 25 mM Tris-HCl pH 8, 25 mM NaCl, oxidation.

B1: LigD (Novosphingobium aromaticivorans DSM 12444) (protein)
chain: MQSFENEIAFITGGASGAGFGQAQVFGRAGAKIVVADVRAEAVERAVAALKAEGIVAHGLVLDITDRQAYAGAADEVEQVFGAAPTLLFNTAGVNSFGPVEDTSYDDFDWIVGVNLGGVINGMVTFVPRMIASGRPGHIVTTSSLGGLMGSALAAPYSAAKAAVINLMESYRQGLDKHGIGVSVLCPANIKSNIAEASRLRPAQFGKSGYVENEESIASLHSIHQHGMDPVELAEHVKAGIVANQLYIIPYPEAKDGLRQHFDAIVDAVLPLEADPEGARARTEALNAWAADRARVFMEKNAAQKA
Regarding B1, the values for the Km in data set [1] and in data set [2] (0.1 μM enzyme) were 70 µM and 410 µM, respectively. In addition, the figures for the kcat in data set [1] and in data set [2] (0.1 μM enzyme) were 0.2 s⁻¹ and 0.02 s⁻¹, respectively.

B2: LigL (Novosphingobium aromaticivorans DSM 12444) (protein)
chain: MGIETFAGRTAFVTGGASGIGLGIVKALARRDAFVVIADMRTDHISRALKALASAGLGESVAAVELDVTDRAAYASMARRMDEEFGGIDVLVNNAGVGVEGPILQATYPDWDFGLGVNLGGVVNGLQAMLPQMIAHGRGGHVVNTASLAATVVMPGHLAIYAAGKAAVLNLTENMRADLAGRGIGSSVLCPGFVRSNIHEAARNRPAHLREGSGFAASEQALSMRETGSEWMDPDAVGEMVADAILADQLYVITHGEFANRMRERAEALLAATPVCEMQF
On to B2, for which the Km is 440 µM in data set [1], 3400 µM in data set [2] (0.01 μM enzyme) and 1530 µM in data set [3]. The kcat is 0.12 s⁻¹ in data set [1], 1.44 s⁻¹ in data set [2] (0.01 μM enzyme) and 0.03 s⁻¹ in data set [3].

B3: LigN (Novosphingobium aromaticivorans DSM 12444) (protein)
chain: MQNLPGKTAFVTGGASGIGLGIAKALLGAGMNVTIADIRQDHLDSAVAELGGGERVLAVKLDVTNRDQFAKAADATEAKFGKIHLLVNNAGVAVVGPTELATFADWDWVMGVNVNGTINGIVTILPRILAHGEGGHIVCTASMSALVPVAGTTIYSAGKAAVTAMMECMRPELEGRGVICSAFCPGAVQSNIADAAKTRPAELADTGYAEADKRRAAGGNFMHLYQTKEQVGERVLEGILNDELYILTHAEFLTGVEERGLATTAAVQTHLPENPEYKETFAALFRNPAITDEIARQNKLKETRKAGVEA
Consider B3, for which the Km in data set [1] was found to be 80 µM; in data set [2] (0.1 μM enzyme), 310 µM. The kcat in data set [1] worked out at 0.30 s⁻¹; in data set [2] (0.1 μM enzyme), 0.1 s⁻¹.

The values are drawn from article PMC8612281, “Aromatic Dimer Dehydrogenases from Novosphingobium aromaticivorans Reduce Monoaromatic Diketones” (Applied and Environmental Microbiology, 2021).
